Results on 8 molecules are retold here after paper PMC6978801, “Structural Basis of Teneurin-Latrophilin Interaction in Repulsive Guidance of Migrating Neurons” (Cell, 2020).

For one assay, the target named is Ten2 on K-562 cells (UniProt Q9DER5). Briefly: K-562 cell aggregation assay. As to conditions: n = 3; parent: est. 56; read off a plot.
The next assay addresses FLRT2 on K-562 cells (UniProt Q8BLU0). Nature of the assay: K-562 cell aggregation assay. The settings on record: n = 3; parent: est. 47; read off a plot.
For a further assay, the target named is Lphn1 on K-562 cells (UniProt Q80TR1). Nature of the assay: K-562 cell aggregation assay. As to conditions: n = 3; parent: est. 56; read off a plot.
For a further assay, the target named is murine Lphn1 (ecto). Briefly: cell-based binding assay (immunofluorescence, HEK293 cells). As to conditions: n = 12; surface chicken Ten2LT, soluble His-tagged murine Lphn1 (ecto); read off a plot.
In the next assay the target is murine Lphn2 (ecto) (UniProt Q8JZZ7). Described as above. The settings on record: n = 12; surface chicken Ten2LT, soluble His-tagged murine Lphn2 (ecto); read off a plot.
Assay [1] deals with murine Latrophilin 2 ectodomain (mLphn2 ecto) (mouse) (UniProt Q8JZZ7). Nature of the assay: SPR; Biacore T200, equilibrium binding at 25 °C, PBS + 0.005% polysorbate 20 pH 7.5; Latrophilin constructs biotinylated at a C-terminal Avi-tag and coupled to a streptavidin-coated CM5 chip (670-730 RU ecto, 220 RU Lec-Olf); Ten2 ectodomains injected; apparent KD from a 1:1 Langmuir fit, analyte concentration calculated as monomer; Teneurin is dimeric, values indicative only.
Sequence of murine Latrophilin 2 ectodomain (mLphn2 ecto) (mouse) (Q8JZZ7 26-1487): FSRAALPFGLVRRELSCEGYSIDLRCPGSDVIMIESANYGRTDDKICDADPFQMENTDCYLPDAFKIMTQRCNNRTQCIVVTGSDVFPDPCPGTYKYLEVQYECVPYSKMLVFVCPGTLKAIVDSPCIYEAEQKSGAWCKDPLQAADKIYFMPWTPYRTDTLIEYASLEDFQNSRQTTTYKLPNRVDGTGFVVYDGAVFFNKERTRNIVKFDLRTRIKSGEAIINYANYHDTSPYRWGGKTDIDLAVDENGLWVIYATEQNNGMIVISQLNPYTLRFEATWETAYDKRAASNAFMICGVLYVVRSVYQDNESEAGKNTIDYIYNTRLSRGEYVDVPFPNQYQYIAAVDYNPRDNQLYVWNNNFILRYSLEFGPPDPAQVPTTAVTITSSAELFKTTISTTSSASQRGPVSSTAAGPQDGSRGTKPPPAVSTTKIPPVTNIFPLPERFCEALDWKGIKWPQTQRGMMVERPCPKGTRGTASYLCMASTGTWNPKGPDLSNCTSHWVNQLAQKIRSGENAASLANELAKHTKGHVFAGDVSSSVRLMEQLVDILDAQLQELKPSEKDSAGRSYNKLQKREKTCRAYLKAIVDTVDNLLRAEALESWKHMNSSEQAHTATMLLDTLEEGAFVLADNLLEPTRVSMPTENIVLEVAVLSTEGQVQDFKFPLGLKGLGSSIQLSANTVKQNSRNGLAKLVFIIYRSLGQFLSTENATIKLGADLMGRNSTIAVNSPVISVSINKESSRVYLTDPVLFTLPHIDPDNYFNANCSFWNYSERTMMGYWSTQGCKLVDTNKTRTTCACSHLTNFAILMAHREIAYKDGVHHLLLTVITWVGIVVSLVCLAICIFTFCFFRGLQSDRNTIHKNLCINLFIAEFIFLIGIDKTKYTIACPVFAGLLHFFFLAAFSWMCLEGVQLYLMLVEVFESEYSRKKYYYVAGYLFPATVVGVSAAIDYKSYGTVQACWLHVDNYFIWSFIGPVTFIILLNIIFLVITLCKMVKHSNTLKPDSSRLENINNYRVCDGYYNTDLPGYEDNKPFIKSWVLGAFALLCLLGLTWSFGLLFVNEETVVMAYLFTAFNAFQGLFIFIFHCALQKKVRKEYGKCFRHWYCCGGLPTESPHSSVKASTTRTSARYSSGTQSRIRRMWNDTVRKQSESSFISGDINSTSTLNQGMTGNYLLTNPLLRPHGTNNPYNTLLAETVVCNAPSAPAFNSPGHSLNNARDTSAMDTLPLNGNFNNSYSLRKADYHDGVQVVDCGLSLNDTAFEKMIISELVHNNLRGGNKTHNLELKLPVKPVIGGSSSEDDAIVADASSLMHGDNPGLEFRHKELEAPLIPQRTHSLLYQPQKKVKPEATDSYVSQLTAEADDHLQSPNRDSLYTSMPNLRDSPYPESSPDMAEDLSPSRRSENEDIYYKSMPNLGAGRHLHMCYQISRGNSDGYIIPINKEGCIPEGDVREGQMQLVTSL

Assay [2] has as its target murine Latrophilin 1 ectodomain (mLphn1 ecto) (mouse) (UniProt Q80TR1). The assay is described as above.
The target in assay [3] is murine Latrophilin 3 ectodomain (mLphn3 ecto) (mouse) (UniProt Q80TS3). The description is as above.
Sequence of murine Latrophilin 3 ectodomain (mLphn3 ecto) (mouse) (Q80TS3 20-1537): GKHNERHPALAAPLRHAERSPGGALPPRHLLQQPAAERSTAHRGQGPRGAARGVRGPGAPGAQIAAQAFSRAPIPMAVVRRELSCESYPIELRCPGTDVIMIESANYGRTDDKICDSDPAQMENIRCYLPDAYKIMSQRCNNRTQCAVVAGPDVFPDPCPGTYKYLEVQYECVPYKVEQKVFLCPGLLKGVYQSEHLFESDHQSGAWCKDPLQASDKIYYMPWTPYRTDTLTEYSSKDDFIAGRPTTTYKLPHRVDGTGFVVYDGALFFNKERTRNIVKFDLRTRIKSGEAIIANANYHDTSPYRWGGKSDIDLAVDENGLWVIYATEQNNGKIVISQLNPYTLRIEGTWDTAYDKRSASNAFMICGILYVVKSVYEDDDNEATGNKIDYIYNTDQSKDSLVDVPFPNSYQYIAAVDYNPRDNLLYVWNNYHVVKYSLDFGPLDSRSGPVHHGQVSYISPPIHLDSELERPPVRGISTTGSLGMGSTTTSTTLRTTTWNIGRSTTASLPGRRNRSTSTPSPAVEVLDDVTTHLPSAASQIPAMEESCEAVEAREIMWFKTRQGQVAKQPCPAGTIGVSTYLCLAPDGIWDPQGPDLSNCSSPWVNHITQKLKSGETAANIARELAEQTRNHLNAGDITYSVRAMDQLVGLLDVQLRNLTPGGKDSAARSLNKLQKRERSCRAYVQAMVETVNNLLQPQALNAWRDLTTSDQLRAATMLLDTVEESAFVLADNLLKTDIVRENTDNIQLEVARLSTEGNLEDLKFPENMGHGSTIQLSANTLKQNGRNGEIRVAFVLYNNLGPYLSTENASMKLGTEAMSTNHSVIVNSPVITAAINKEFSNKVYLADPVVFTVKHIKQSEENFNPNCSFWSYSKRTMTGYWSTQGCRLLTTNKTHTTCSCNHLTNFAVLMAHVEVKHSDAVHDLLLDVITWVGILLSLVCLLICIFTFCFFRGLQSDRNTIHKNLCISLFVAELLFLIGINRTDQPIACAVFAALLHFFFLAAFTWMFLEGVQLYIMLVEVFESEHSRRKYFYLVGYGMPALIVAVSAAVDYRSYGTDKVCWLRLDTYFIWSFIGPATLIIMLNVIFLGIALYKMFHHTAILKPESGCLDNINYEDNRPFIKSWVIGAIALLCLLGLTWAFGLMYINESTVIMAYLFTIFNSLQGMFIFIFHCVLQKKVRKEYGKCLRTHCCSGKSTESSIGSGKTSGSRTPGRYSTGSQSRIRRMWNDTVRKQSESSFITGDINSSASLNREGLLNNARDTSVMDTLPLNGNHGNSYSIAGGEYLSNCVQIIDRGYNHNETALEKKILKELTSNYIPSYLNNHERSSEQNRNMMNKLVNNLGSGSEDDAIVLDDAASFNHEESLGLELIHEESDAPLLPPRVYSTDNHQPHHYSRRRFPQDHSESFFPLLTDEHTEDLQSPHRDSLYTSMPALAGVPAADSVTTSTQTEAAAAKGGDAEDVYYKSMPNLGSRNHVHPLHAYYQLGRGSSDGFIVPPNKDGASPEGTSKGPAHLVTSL
For assay [4], the target named is chicken Ten2 ectodomain, soluble (UniProt Q9DER5). Briefly: cell-based binding assay (immunofluorescence, HEK293 cells). The settings on record: n = 12, parent: est. 58, read off a plot.
The target in assay [5] is mouse Teneurin 2 protein, soluble (UniProt Q9WTS5). The assay is described as above. As to conditions: n = 12; surface murine Lphn1TL, soluble His-tagged murine Ten2 (ecto); parent: est. 27; read off a plot.
Assay [6] has as its target T1, murine Teneurin 2 ectodomain (mTen2 ecto) (mouse, UniProt Q9WTS5 401-2764).
T1 construct: Teneurin-2 (Ten2), mouse, soluble ectodomain ('ecto'); analyte concentration was calculated as monomer; also called mouse Ten2 (ecto); mouse Teneurin 2 protein; source: HEK293 cells, purified (HisTrap, Superdex200 size exclusion)
Briefly: SPR; Biacore T200, equilibrium binding at 25 °C, PBS + 0.005% polysorbate 20 pH 7.5; Latrophilin constructs biotinylated at a C-terminal Avi-tag and coupled to a streptavidin-coated CM5 chip (670-730 RU ecto, 220 RU Lec-Olf); Ten2 ectodomains injected; apparent KD from a 1:1 Langmuir fit, analyte concentration calculated as monomer; Teneurin is dimeric, values indicative only. As to conditions: both partners purified.

For assay [7], the target named is T2, chicken Teneurin 2 ectodomain (gTen2 ecto) (chicken, UniProt Q9DER5 429-2802).
T2 construct: Teneurin-2 (Ten2), chicken (Gallus gallus), soluble ectodomain ('ecto'); analyte concentration was calculated as monomer; also called chicken Ten2 (ecto); source: HEK293 cells, purified (HisTrap, Superdex200 size exclusion)
The assay is described as above. The settings on record: both partners purified.

Sequence of FLRT2 on K-562 cells (Q8BLU0 36-660): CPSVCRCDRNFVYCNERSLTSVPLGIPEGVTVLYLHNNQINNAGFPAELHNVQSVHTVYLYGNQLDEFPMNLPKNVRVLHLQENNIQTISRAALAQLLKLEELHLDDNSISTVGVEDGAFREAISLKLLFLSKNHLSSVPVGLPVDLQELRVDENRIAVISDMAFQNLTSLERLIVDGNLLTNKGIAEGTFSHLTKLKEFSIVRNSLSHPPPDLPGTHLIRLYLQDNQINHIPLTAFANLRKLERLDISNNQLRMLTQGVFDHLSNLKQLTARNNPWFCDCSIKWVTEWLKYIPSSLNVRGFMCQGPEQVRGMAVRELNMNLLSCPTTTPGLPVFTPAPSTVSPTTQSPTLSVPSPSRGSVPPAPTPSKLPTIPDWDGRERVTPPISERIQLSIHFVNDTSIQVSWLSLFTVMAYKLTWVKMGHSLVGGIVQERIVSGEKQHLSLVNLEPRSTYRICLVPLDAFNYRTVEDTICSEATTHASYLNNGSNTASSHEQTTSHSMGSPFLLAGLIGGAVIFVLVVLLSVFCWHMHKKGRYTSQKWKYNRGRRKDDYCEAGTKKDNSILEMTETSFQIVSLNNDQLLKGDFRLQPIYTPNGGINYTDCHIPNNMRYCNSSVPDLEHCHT

“Lphn1 on K-562 cells (from UniProt Q80TR1) E39N”: the values for the other: aggregation (%) in the assay with Ten2 on K-562 cells and with FLRT2 on K-562 cells were 5% and 68%, respectively.

In the case of “Ten2 on K-562 cells (from UniProt Q9DER5) 1892N; K1894T”, the other: aggregation (%) with Lphn1 on K-562 cells stood at 5%.

On to “chicken Ten2, transmembrane construct at the surface of HEK293 cells (from UniProt Q9DER5) 1892N; K1894T”, for which the response amounted to 0% with murine Lphn1 (ecto) and 2% in the assay with murine Lphn2 (ecto).

As for “chicken Teneurin 2 ectodomain (gTen2 ecto) (from UniProt Q9DER5 429-2802) (domain or fragment)”, the Kd in assay [1] was 60 nM; in [2], 40 nM; in assay [3], 680 nM.

As to “murine Lphn1 (mVenus-tagged, surface of HEK293 cells) E39N”, the response amounted to 0% in assay [4] (surface murine Lphn1TL, soluble His-tagged chicken Ten2 (ecto)) and 0% in assay [5].

With “murine Lphn1 (mVenus-tagged, surface of HEK293 cells) L39A; P51G; D54A; D67A; D72A”, the response in assay [4] (surface murine Lphn1TL2, soluble His-tagged chicken Ten2 (ecto)) was determined as 1.5%.

Take “murine Teneurin 2 ectodomain (mTen2 ecto) (from UniProt Q9WTS5 401-2764) (domain or fragment)”: the Kd in assay [1] was 100 nM; in assay [2] it was 35 nM; in [3], 490 nM.

B1: murine Latrophilin 1 Lec-Olf domains (mLphn1 Lec-Olf) (domain or fragment, mouse, UniProt Q80TR1 29-395, looked up)
chain: GLPFGLMRRELACEGYPIELRCPGSDVIMVENANYGRTDDKICDADPFQMENVQCYLPDAFKIMSQRCNNRTQCVVVAGSDAFPDPCPGTYKYLEVQYDCVPYIFVCPGTLQKVLEPTSTHESEHQSGAWCKDPLQAGDRIYVMPWIPYRTDTLTEYASWEDYVAARHTTTYRLPNRVDGTGFVVYDGAVFYNKERTRNIVKYDLRTRIKSGETVINTANYHDTSPYRWGGKTDIDLAVDENGLWVIYATEGNNGRLVVSQLNPYTLRFEGTWETGYDKRSASNAFMVCGVLYVLRSVYVDDDSEAAGNRVDYAFNTNANREEPVSLAFPNPYQFVSSVDYNPRDNQLYVWNNYFVVRYSLEFGPPD
modifications: biotinylated enzymatically at the C-terminal Avi-tag
notes: The limits 29-395 are printed for the Lec-Olf construct that was crystallised; source: HEK293 cells; biotinylated enzymatically; not shown: Avi-tag, C-terminal, kept
In the case of B1, the Kd in assay [6] was 290 nM; in [7] it was 590 nM.
